In publication doi:10.1101/2023.06.24.546380:

Experiments:
[1] = target: Zonula occludens scaffold protein ZO1 (UniProt Q07157); test: partitioning of actin into ZO1 surface condensates on supported lipid bilayers
[2] = target: intracellular domain of the tight junction receptor JAM-A (UniProt Q9Y624)
Sequence of UniProt Q9Y624 (Q9Y624 28-299): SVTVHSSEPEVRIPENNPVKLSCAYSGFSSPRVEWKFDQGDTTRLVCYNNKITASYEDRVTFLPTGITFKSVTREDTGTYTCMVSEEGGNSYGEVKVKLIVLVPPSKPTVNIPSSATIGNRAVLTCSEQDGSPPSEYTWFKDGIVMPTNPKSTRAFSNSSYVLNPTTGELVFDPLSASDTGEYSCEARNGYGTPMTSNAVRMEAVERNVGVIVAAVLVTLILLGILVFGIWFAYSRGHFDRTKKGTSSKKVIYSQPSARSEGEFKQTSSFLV

Sequence of UniProt Q07157 (Q07157 whole entry, the tested form may be a part): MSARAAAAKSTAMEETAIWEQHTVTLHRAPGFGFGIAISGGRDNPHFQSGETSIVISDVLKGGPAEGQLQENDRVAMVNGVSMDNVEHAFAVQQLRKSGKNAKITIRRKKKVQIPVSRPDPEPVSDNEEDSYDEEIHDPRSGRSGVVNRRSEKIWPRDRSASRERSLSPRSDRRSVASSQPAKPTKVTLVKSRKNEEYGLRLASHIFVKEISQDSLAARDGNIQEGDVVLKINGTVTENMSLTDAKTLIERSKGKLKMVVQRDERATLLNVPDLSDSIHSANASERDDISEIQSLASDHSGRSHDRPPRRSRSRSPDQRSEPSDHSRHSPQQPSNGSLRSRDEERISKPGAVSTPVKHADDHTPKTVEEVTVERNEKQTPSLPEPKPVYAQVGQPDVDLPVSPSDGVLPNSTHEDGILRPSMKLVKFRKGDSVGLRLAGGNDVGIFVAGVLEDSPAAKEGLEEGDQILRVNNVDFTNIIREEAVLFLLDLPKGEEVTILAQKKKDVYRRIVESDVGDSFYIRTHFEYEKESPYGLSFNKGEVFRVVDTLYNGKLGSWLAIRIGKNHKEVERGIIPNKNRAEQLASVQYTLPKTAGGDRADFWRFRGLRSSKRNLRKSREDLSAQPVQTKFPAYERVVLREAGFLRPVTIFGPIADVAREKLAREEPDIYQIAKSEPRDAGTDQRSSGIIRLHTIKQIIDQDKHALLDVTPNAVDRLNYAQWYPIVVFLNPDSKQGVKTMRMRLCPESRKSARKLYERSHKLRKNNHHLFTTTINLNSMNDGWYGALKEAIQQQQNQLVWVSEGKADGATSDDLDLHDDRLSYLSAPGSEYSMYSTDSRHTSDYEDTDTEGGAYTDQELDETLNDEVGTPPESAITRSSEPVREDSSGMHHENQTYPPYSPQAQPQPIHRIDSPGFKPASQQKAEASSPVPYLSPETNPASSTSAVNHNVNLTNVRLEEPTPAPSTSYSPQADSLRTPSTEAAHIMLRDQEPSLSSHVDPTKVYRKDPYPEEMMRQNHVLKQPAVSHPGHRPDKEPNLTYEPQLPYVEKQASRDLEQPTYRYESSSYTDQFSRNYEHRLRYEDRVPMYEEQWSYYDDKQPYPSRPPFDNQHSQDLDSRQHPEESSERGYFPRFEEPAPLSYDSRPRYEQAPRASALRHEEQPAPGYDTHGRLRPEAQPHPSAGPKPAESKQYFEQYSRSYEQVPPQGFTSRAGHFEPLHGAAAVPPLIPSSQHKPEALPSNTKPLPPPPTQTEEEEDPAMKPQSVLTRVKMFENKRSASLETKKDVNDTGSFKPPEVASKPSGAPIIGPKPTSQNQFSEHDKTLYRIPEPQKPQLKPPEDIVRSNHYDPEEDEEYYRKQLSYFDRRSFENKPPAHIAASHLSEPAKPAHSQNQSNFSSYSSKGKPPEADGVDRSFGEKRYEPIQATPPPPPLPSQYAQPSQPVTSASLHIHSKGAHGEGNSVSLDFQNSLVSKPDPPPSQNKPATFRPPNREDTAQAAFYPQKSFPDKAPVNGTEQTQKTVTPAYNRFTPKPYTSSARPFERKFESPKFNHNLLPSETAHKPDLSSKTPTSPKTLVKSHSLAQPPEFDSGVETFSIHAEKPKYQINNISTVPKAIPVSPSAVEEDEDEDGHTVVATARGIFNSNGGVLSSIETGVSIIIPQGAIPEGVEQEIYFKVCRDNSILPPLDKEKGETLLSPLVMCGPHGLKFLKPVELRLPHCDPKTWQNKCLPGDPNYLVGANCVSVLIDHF

“G-actin-Alexa Fluor 647 (from UniProt P68135 1-377) (natural protein)” gave a fold enrichment in the surface condensates [1] of 5 fold.
Substance “Zonula occludens scaffold protein ZO1 (from UniProt Q07157 1-1748) (natural protein)” has a fold enrichment in the dense ZO1 phase [2] of 2 fold.
